Test results: paper PMC13156308, “Proximal proteomics analysis reveals DNA polymerase δ subunit 3 is a new MCM2 binding partner and promotes parental histones inheritance in mammalian cells” (Cell Death and Differentiation, 2025)

Biological target: T1, GST-tagged MCM2 (human, UniProt P49736 1-904)
T1 construct: MCM2, amplified from cDNA of human MCF-7 cells, in pGEX-C5X; called MCM2-His in the three-protein pull-down; also called GST-MCM2; MCM2-His; source: E. coli BL21, purified (Ni-NTA); not shown: GST, N-terminal, kept; His tag, C-terminal, kept
T1 sequence (P49736 whole entry): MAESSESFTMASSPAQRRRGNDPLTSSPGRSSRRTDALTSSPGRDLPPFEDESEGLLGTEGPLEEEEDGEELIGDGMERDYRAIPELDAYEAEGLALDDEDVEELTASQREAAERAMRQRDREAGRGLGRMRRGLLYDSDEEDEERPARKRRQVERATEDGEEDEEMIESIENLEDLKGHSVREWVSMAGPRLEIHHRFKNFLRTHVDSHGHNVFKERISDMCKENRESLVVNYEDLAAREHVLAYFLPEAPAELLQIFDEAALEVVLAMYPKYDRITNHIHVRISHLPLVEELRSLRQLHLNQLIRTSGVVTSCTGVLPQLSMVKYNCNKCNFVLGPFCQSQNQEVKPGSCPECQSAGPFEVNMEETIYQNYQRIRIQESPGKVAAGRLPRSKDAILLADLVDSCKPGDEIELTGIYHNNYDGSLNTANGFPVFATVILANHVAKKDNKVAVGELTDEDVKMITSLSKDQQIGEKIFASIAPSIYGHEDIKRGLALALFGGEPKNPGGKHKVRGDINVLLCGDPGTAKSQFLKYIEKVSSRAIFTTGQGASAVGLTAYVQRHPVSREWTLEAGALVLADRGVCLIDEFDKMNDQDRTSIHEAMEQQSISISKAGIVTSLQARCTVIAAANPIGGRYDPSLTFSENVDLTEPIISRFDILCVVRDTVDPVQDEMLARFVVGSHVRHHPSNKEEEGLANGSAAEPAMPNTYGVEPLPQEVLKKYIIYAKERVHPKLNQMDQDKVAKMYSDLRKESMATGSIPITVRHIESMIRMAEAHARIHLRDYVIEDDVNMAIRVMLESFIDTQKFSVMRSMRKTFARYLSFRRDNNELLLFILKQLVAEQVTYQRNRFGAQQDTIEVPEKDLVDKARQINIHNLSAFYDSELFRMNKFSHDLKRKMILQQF
Assay: BLI; MCM2 immobilised on Anti-GST biosensors, BLItz, 1x PBS and 0.02% Tween; analyte 0-50.0 nM
Details: both partners purified

- Kd: 0.0102 µM
B1: full-length strep-tagged POLD3 (natural protein, human, UniProt Q15054 1-466, looked up)
chain: MADQLYLENIDEFVTDQNKIVTYKWLSYTLGVHVNQAKQMLYDYVERKRKENSGAQLHVTYLVSGSLIQNGHSCHKVAVVREDKLEAVKSKLAVTASIHVYSIQKAMLKDSGPLFNTDYDILKSNLQNCSKFSAIQCAAAVPRAPAESSSSSKKFEQSHLHMSSETQANNELTTNGHGPPASKQVSQQPKGIMGMFASKAAAKTQETNKETKTEAKEVTNASAAGNKAPGKGNMMSNFFGKAAMNKFKVNLDSEQAVKEEKIVEQPTVSVTEPKLATPAGLKKSSKKAEPVKVLQKEKKRGKRVALSDDETKETENMRKKRRRIKLPESDSSEDEVFPDSPGAYEAESPSPPPPPSPPLEPVPKTEPEPPSVKSSSGENKRKRKRVLKSKTYLDGEGCIVTEKVYESESCTDSEEELNMKTSSVHRPPAMTVKKEPREERKGPKKGTAALGKANRQVSITGFFQRK
notes: full-length human POLD3 gene, synthesised and codon-optimised, in pET28b; also called purified POLD3; Strep II-tagged POLD3; source: E. coli BL21, purified (Ni-NTA); not shown: twin-strep, C-terminal, kept
